Usually IC50 stands for the concentration that gives 50% inhibition. Read a low IC50 as higher potency. What is called EC50 is the midpoint of the concentration-response curve. High values mean a need for much substance, low ones an effect from little substance.

For experiment [1], the target named is T1, 293T-CTLA-4细胞 (human CTLA-4 on 293T cells) (human, UniProt P16410 36-223).
T1 construct: whole, on cells; also called 人CTLA-4
T1 sequence (looked up): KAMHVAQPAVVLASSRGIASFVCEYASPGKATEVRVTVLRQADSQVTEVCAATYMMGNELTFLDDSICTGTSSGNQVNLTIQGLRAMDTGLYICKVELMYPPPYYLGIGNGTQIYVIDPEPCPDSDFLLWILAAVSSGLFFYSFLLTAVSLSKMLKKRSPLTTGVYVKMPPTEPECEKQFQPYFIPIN
The experiment is described as follows: competition FACS on 293T-CTLA-4 cells, competitor CD80-biotin; the lowest, tied by Table 8 to 3D2A10.

Experiment [2] deals with T2, CTLA-4-hFc蛋白 (human CTLA-4 fused to human Fc) (human, UniProt P16410 36-161, limits assumed).
T2 construct: Coated on ELISA plates; also called CTLA-4-Fc; not shown: human Fc (hFc)
T2 sequence (looked up): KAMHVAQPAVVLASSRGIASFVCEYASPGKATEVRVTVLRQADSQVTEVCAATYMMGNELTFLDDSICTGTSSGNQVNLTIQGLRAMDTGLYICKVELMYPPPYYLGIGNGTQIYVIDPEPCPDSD
The experiment in a line: ELISA, CTLA-4-hFc coated; low end of the group's range, tied by Table 5 to 3D2A10. A general note: An ELISA detects its analyte on a solid surface through an enzyme-linked reagent.

Experiment [3] has as its target T1, 293T-CTLA-4细胞 (human CTLA-4 on 293T …). The experiment is described as follows: FACS on 293T-CTLA-4 cells.
Experiment [4] has the same target. The experiment in a line: competition FACS on 293T-CTLA-4 cells, competitor CD80-biotin.
The target in experiment [5] is T2, CTLA-4-hFc蛋白 (human CTLA-4 fused to …). The experiment is described as follows: ELISA, CTLA-4-hFc coated.
Experiment [6] has the same target. The experiment is described as follows: competition ELISA, CTLA-4-hFc coated, competitor CD80-biotin; the lowest, tied by Table 6 to 3D2A10.
Experiment [7] has the same target. The experiment is described as follows: competition ELISA, CTLA-4-hFc coated, competitor CD80-biotin.
The target in experiment [8] is T1, 293T-CTLA-4细胞 (human CTLA-4 on 293T …). The experiment in a line: FACS on 293T-CTLA-4 cells; the lowest, tied by Table 7 to 10F8D1.

B1: 3D2A10人源化抗体 (humanized CTLA-4 antibody 3D2A10, IgG1) (antibody, V domains shown)
VH: QVTLKESGPVLVKPTETLTLTCTVSGFSLTNYAVHWIRQPPGKALEWLGVIWSGGYIDYNAVFISRLTISKDNSKSQAVLTMTNMDPVDTATYYCARSGETGTYYFDYWGQGTLVTVSS
VL: EIVMTQSPATLSVSPGERATLSCRASENIYSYLAWYQQKPGQAPRLLVYSATKLANGIPARFSGSGSGTEYTLTISSLQSEDFAVYYCQHFWGTPWTFGGGTKVEIKR
notes: Humanized by CDR grafting with back mutations, built as IgG1, made in 293 cells; also called 人源化CTLA-4抗体3D2A10
B1: the IC50 in experiment [1] was less than 0.7 mg/L; in experiment [4] it was 0.696 mg/L; in experiment [6], less than 0.36 mg/L; in experiment [7] it was 0.352 mg/L. Besides, the figures for the EC50 in experiment [2], in experiment [3] and in experiment [5] were 0.001 mg/L, 0.0788 mg/L and 0.0012 mg/L, respectively.

B2: 10F8D1人源化抗体 (humanized CTLA-4 antibody 10F8D1, IgG1) (antibody, V domains shown)
VH: QVQLVQSGAEVKKPGASVKVSCKASGYTFTNYWMHWVRQAPGQGLEWIGYINPTTTYTNYNQKFKDRATLTADKSISTAYMELSRLRSDDTAVYYCATTAQATGYGMDFWGQGTLVTVSS
VL: DIVMTQSPDSLAVSLGERATINCKSTQSLLNSGNQRNYLTWYQQKPGQPPKLLIYWASTRESGVPDRFSGSGSGTDFTLTISSLQAEDVAVYYCQNDYSFPLTFGQGTKLEIKR
notes: Humanized by CDR grafting with back mutations, built as IgG1, made in 293 cells; also called 人源化CTLA-4抗体10F8D1
B2: the EC50 is less than 0.024 mg/L in experiment [8], 0.0231 mg/L in experiment [3] and 0.00149 mg/L in experiment [5]. In addition, the IC50 in experiment [4] was 1.66 mg/L; in experiment [7], 0.388 mg/L.

The record behind these values is patent CN110256561A (DONGDA BIOLOGY TECH SUZHOU CO LTD, dated 2019).
